Measurements from patent US5763571, “Inhibiting protein interactions” (The General Hospital Corporation, dated 1998).
No end group written: not given here.

Molecular target: GST-Raf(1-257) (human)
Test: peptide competition of Ras-GTP / GST-Raf co-precipitation

IC50: 100 µM
B1: Ras 37-51 peptide (peptide)
peptide: EDSYRKQVVIDGETC
modifications: not fully specified (N-terminus, C-terminus)
